Reference: patent publication US7193044B1, “Compounds and methods for regulating apoptosis, and methods of making and screening for compounds that regulate apoptosis” (Immunogen, Inc., priority 2000, dated 2007)
Entries after “also recorded” stand apart in the source; their conditions may differ.

Key:
GST-Bcl-XL = GST-Bcl-XL (Homo sapiens, UniProt Q07817); assay: GST-Bcl-XL binding (glutathione bead pull-down) of BAD; settings: whole cell lysate of COS-7 cells, glutathione bead precipitation, anti-HA blot
Chain of GST-Bcl-XL (Q07817 whole entry): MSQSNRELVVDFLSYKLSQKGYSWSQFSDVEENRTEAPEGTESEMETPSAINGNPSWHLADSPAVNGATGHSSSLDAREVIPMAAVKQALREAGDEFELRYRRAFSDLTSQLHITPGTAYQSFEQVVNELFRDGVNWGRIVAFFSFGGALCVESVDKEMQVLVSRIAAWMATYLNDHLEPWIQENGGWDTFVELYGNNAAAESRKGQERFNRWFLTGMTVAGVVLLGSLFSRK
Protocol: In order to test whether the additional and novel phosphorylation site on BAD has functional significance, the effect on BAD binding to Bcl-XL was examined. Recombinant Bcl-XL tagged with the glutathione S-transferase (“GST”) moiety (“GST-Bcl-XL”) was incubated with WCL prepared from COS-7 cells expressing the double mutant HA-BAD S112A/S136A, and the HA-BAD S112A/S136A that bound to the GST-Bcl-XL was precipitated with GST beads. […] No HA-BAD S112A/S136A was precipitated with GST beads from the WCL that were not incubated with GST-Bcl-XL (FIG. 1, lane 4).
The ability of full-length BAD and mutant BAD S155A to bind Bcl-XL was also determined (FIG. 3(c)). Full-length BAD (“WT”) and mutant BAD S155A (“S155A”) were produced by in vitro translation and labeled with ^35S-methionine therein. […] Proteins bound to the beads (“Bound”) (lower panel) and samples of the reactions collected prior to incubation with the beads (“Total”) (upper panel) were analyzed by SDS-PAGE followed by autoradiography.
For Bcl-XL binding studies, GST-Bcl-XL (1 mg/ml final concentration) was added to cell lysates derived from BAD expressing cells, and incubated with rotation for two hours at 4° C. […] The beads were then washed with RIPA buffer, the proteins were separated by SDS-PAGE and associated BAD detected by probing the blot with anti-HA antibody.

[1] = system: BAD phosphorylation in COS-7 cells; assay: BAD phosphorylation in COS-7 cells (western blot band-shift); format: cell-based; settings: anti-HA western blot, listed as HA-BAD S112A/S136A
Excerpt: Mouse FL5.12 cells were then transfected with the expression vector encoding the shorter murine BAD of SEQ ID NO:3 or one of the three BAD mutants. Total mRNA was isolated from the transfected FL5.12 cells, and reverse transcribed into cDNA. The cDNA was then subcloned into the expression vector pcDNA3 so that the amino acid sequence of the BAD or mutant BAD, encoded by the subcloned cDNA, was in-frame and operably linked to an N-terminal hemagglutinin (“HA”) epitope encoded by the expression vector. The expression vectors encoding the HA-tagged shorter murine BAD and mutant BAD were expressed in COS-7 cells. Whole cell lysates (“WCL”) were then prepared from the COS-7 cells expressing the polypeptides. The phosphorylation of the shorter murine BAD of SEQ ID NO:3 and mutant BAD were detected by a western blot of the WCL, probed with an anti-HA antibody (“anti-HA antibody”). […] Of note, each of the BAD mutants resolved as a doublet on a 16% SDS-PAGE, even though in the amino acid sequence of each of the BAD mutants one or both of the serines corresponding to Ser112 and Ser136 were mutated, i.e., substituted with alanine. […]

HeLa cells = assay: Fluorescence-based beta-galactosidase assay of BAD-induced cell death in transfected HeLa cells; set-up: species or system human; settings: SFM vs SFM+EGF, 12 hours
Protocol: FIG. 12(B) is a graphic representation of the results of a β-galactosidase assay. HeLa cells were co-transfected with the β-galactosidase gene and either HA-BAD (“WT”), HA-BAD S155A (“S155A”), HA-BAD S112A/S136A (“S112A/S136A”) or HA-BAD S112A/S136A/S155A (“AAA”). Transfected cells were then cultured in serum-free medium (SFM) or SFM supplemented with EGF (SFM+EGF) for 12 hours. Cell lysates were prepared and BAD-induced cell death was measured by the loss of β-galactosidase activity in a fluorescence-based assay. Fluorescence was measured at 465 nm. Results shown are the average and standard deviation of triplicate transfections (this experiment was repeated two more times with similar results). Expression levels of HA-tagged BAD and BAD mutants in transfected cell lysates were detected by anti-HA western blot analysis: HA-BAD (“WT”), HA-BAD S155A (“A”), HA-BAD S112A/S136A (“AA”), and HA-BAD S112A/S136A/S155A (“AAA”).
FIG. 12(C) is a graphic representation of the results of a β-galactosidase assay. HeLa cells were co-transfected with the β-galactosidase gene and either an empty vector (“CTL”), wild-type BAD (“WT”), the BAD S155A mutant (“S155A”) or the BAD S155D mutant (“S155D”). Cell lysates were prepared and BAD-induced cell death was measured by the loss of β-galactosidase activity in a fluorescence-based assay. Fluorescence was measured at 465 nm. Results shown are the average and standard deviation of triplicate transfections (this experiment was repeated two more times with similar results).
HeLa cells were co-transfected with the β-galactosidase gene and either wild-type BAD, BAD S155A, BAD S112A/S136A or BAD S112A/S136A/S155A. […] Cell lysates were prepared and BAD-induced cell death was measured by the loss of β-galactosidase activity in a fluorescence-based assay. […]
To measure β-gal activity, HeLa cells were plated in 12-well plates at 5×10^4 cells/well one day prior to transfection. […] Beta-gal activity was measured in extracts using a fluorogenic substrate (MUG, BIO-RAD FluorAce™ β-gal Reporter Assay, #170–3150). […]

B1: BAD S112A/S136A: mutant of shorter murine BAD, serines corresponding to Ser112 and Ser136 substituted with alanine (protein)
chain: MFQIPEFEPSEQEDASATDRGLGPSLTEDQPGPYLAPGLLGSNIHQQGRAATNSHHGGAGAMETRSRHSAYPAGTEEDEGMEEELSPFRGRSRAAPPNLWAAQRYGRELRRMSDEFEGSFKGLPRPKSAGTATQMRQSAGWTRIIQSWWDRNLGKGGSTPSQ
modifications: left off: small tags and cut ends
notes: mutant of shorter murine BAD, serines corresponding to Ser112 and Ser136 substituted with alanine
GST-Bcl-XL
  binding to GST-Bcl-XL: only the lower molecular weight band of the doublet was detected
[1]
  phosphorylation of expressed BAD mutant (lambda phosphatase-sensitive higher molecular weight band): phosphatase treatment completely eliminated the higher molecular weight band of the doublet; also recorded: do not eliminate the phosphorylation of BAD
HeLa cells
  effect of EGF stimulation on pro-apoptotic activity of the BAD mutant: also suppressed by EGF stimulation
